The subject of series [1] is Recombinant TFPI-2 (novel human Kunitz-type inhibitor encoded by clone J-2-11, expressed in BHK570 cells and purified from conditioned medium).
Series [2] addresses T1, Recombinant TFPI-2 (novel human Kunitz-type inhibitor encoded by clone J-2-11, expressed in BHK570 cells and purified from conditioned medium).
T1 chain: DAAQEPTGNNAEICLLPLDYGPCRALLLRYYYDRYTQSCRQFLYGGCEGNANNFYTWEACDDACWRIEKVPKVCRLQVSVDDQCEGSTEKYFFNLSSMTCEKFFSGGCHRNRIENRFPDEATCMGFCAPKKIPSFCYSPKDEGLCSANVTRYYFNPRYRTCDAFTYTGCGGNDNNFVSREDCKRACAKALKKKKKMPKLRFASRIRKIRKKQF

Human thrombin: the “amidolytic activity of human thrombin towards chromogenic substrate S-2238 (absorbance at 405 nm)” value in series [1] is listed as “Recombinant TFPI-2 was shown to have no effect on the amidolytic activity of human thrombin towards S-2238”.

Take Human factor Xa: in series [1], the “amidolytic activity of 20 nM factor Xa towards chromogenic substrate S-2222 (absorbance at 405 nm)” value was “Recombinant TFPI-2 was shown to weakly inhibit the amidolytic activity of 20 nM factor Xa towards the chromogenic substrate S-2222 in a dose-dependent manner”.

B1: Human factor VIIa/tissue factor complex (recombinant human factor VIIa with recombinant, truncated, human tissue factor apoprotein TF1-219) (protein)
chain 1: ANAFLEELRPGSLERECKEEQCSFEEAREIFKDAERTKLFWISYSDGDQCASSPCQNGGSCKDQLQSYICFCLPAFEGRNCETHKDDQLICVNENGGCEQYCSDHTGTKRSCRCHEGYSLLADGVSCTPTVEYPCGKIPILEKRNASKPQGRIVGGKVCPKGECPWQVLLLVNGAQLCGGTLINTIWVVSAAHCFDKIKNWRNLIAVLGEHDLSEHDGDEQSRRVAQVIIPSTYVPGTTNHDIALLRLHQPVVLTDHVVPLCLPERTFSERTLAFVRFSLVSGWGQLLDRGATALELMVLNVPRLMTQDCLQQSRKVGDSPNITEYMFCAGYSDGSKDSCKGDSGGPHATHYRGTWYLTGIVSWGQGCATVGHFGVYTRVSQYIEWLQKLMRSEPRPGVLLRAPFP
chain 2: SGTTNTVAAYNLTWKSTNFKTILEWEPKPVNQVYTVQISTKSGDWKSKCFYTTDTECDLTDEIVKDVKQTYLARVFSYPAGNVESTGSAGEPLYENSPEFTPYLETNLGQPTIQSFEQVGTKVNVTVEDERTLVRRNNTFLSLRDVFGKDLIYTLYYWKSSSSGKKTAKTNTNEFLIDVDKGENYCFSVQAVIPSRTVNRKSTDSPVECMGQEKGEFRE
Regarding B1, in series [2], the “amidolytic activity of 20 nM factor VIIa-tissue factor towards chromogenic substrate S-2288 (absorbance at 405 nm)” value was “Recombinant TFPI-2 was shown to inhibit the amidolytic activity of 20 nM factor VIIa-tissue factor towards the chromogenic substrate S-2288 in a dose-dependent manner”.

The values are drawn from patent US20020098560.
